This is an account of results in article PMC9093745, “Carbohydrate Metabolism in Bacteria: Alternative Specificities in ADP-Glucose Pyrophosphorylases Open Novel Metabolic Scenarios and Biotechnological Tools” (Frontiers in Microbiology, 2022).

Substrate in series [1]: Nc1ncnc2c1ncn2[C@@H]1O[C@H](COP(=O)(O)OP(=O)(O)OP(=O)(O)O)[C@@H](O)[C@H]1O
The experiment in a line: purified protein. The conditions noted are these: 1 mM GlcN-1P co-substrate, Mg2+, pH 8.0, 37°C.

Substrate in series [2]: N[C@H]1[C@@H](OP(=O)(O)O)O[C@H](CO)[C@@H](O)[C@@H]1O
The experiment in a line: purified protein. The conditions noted are these: ATP co-substrate, Mg2+, pH 8.0, 37°C, no activator.

B1: G. stearothermophilus ADP-Glc PPase GlgC/GlgD (Geobacillus stearothermophilus) (protein)
chain: MKKKCIAMLLAGGQGSRLRSLTTNIAKPAVPFGGKYRIIDFTLSNCTNSGIDTVGVLTQYQPLLLHSYIGIGSAWDLDRRNGGVTVLPPYSVSSGVKWYEGTANAVYQNINYIEQYNPDYVLVLSGDHIYKMDYQHMLDYHIAKQADVTISVIEVPWEEASRFGIMNTNEEMEIVEFAEKPAEPKSNLASMGIYIFNWPLLKQYLQIDNANPHSSHDFGKDVIPMLLREKKRPFAYPFEGYWKDVGTVKSLWEANMDLLDENNELDLFDRSWRIYSVNPNQPPQYISPEAEVSDSLVNEGCVVEGTVERSVLFQGVRIGKGAVVKESVIMPGAAVSEGAYVERAIVTPDSIIPPHSSVCPEDADDVVLVTAEWLKQSNEETARKDEA
What is called Km is the concentration of substrate that gives half-maximal velocity. With B1, the Km in the series “purified protein [1]” turned out to be 0.21 mM; in “purified protein [2]” it was 0.4 mM.
